Results reported in the Human Domainome abundance scans (Beltran et al. 2025).
± gives the uncertainty stated by the source.

Assay: abundance fitness (aPCA) (normalised: wild type 0, dead -1); higher = more abundant; growth selection in yeast, the domain comes from the species named
Settings: Homo sapiens

| Substance | abundance fitness |
| --- | --- |
| Scaffold attachment factor B1 S50H, Q15424 | -0.099 ± 0.072 |
| Scaffold attachment factor B1 I65C, Q15424 | -0.141 ± 0.087 |
| Scaffold attachment factor B1 D67W, Q15424 | -0.474 ± 0.048 |
| Scaffold attachment factor B1 E74A, Q15424 | -0.071 ± 0.067 |
| Scaffold attachment factor B1 L43F, Q15424 | -1.21 ± 0.073 |
| Scaffold attachment factor B1 E66Q, Q15424 | -0.014 ± 0.078 |
| Scaffold attachment factor B1 R40A, Q15424 | -0.272 ± 0.065 |
| Scaffold attachment factor B1 S51M, Q15424 | -0.284 ± 0.07 |
| Scaffold attachment factor B1 T26L, Q15424 | -0.518 ± 0.15 |
| Scaffold attachment factor B1 R30Y, Q15424 | -0.383 ± 0.086 |
| Scaffold attachment factor B1 K63W, Q15424 | -0.398 ± 0.057 |
| Scaffold attachment factor B1 T78K, Q15424 | -0.131 ± 0.076 |
| Scaffold attachment factor B1 R60S, Q15424 | -0.321 ± 0.076 |
| Scaffold attachment factor B1 N53F, Q15424 | -0.354 ± 0.048 |
| Scaffold attachment factor B1 E68D, Q15424 | -0.224 ± 0.073 |
| Scaffold attachment factor B1 S51R, Q15424 | -0.141 ± 0.076 |
| Scaffold attachment factor B1 L57Y, Q15424 | -1.23 ± 0.095 |
| Scaffold attachment factor B1 R46T, Q15424 | -0.845 ± 0.11 |
| Scaffold attachment factor B1 E76Q, Q15424 | -0.415 ± 0.088 |

| Substance | abundance fitness |
| --- | --- |
| Scaffold attachment factor B1 L39E, Q15424 | -0.753 ± 0.06 |
| Scaffold attachment factor B1 V56F, Q15424 | -0.414 ± 0.072 |
| Scaffold attachment factor B1 I65D, Q15424 | -0.706 ± 0.077 |
| Scaffold attachment factor B1 L57A, Q15424 | -0.462 ± 0.062 |
| Scaffold attachment factor B1 E76N, Q15424 | -0.169 ± 0.067 |
| Scaffold attachment factor B1 I65F, Q15424 | -0.466 ± 0.099 |
| Scaffold attachment factor B1 D73C, Q15424 | -0.206 ± 0.059 |
| Scaffold attachment factor B1 P72I, Q15424 | -0.382 ± 0.11 |
| Scaffold attachment factor B1 R29H, Q15424 | -0.262 ± 0.088 |
| Scaffold attachment factor B1 K54H, Q15424 | -0.401 ± 0.11 |
| Scaffold attachment factor B1 L57S, Q15424 | -0.584 ± 0.052 |
| Scaffold attachment factor B1 P72G, Q15424 | -0.11 ± 0.048 |
| Scaffold attachment factor B1 S50W, Q15424 | -0.226 ± 0.068 |
| Scaffold attachment factor B1 V56E, Q15424 | -0.15 ± 0.078 |
| Scaffold attachment factor B1 K54W, Q15424 | -0.255 ± 0.056 |
| Scaffold attachment factor B1 L31E, Q15424 | -0.496 ± 0.076 |
| Scaffold attachment factor B1 D73W, Q15424 | -0.513 ± 0.056 |
| Scaffold attachment factor B1 L43I, Q15424 | -1.02 ± 0.091 |
| Scaffold attachment factor B1 E76A, Q15424 | -0.161 ± 0.064 |

| Substance | abundance fitness |
| --- | --- |
| Scaffold attachment factor B1 N47S, Q15424 | -0.236 ± 0.07 |
| Scaffold attachment factor B1 L57M, Q15424 | -0.272 ± 0.074 |
| Scaffold attachment factor B1 R46I, Q15424 | -0.642 ± 0.072 |
| Scaffold attachment factor B1 L43N, Q15424 | -0.936 ± 0.13 |
| Scaffold attachment factor B1 R30Q, Q15424 | -0.25 ± 0.082 |
| Scaffold attachment factor B1 L39G, Q15424 | -0.814 ± 0.052 |
| Scaffold attachment factor B1 K54Q, Q15424 | -0.115 ± 0.066 |
| Scaffold attachment factor B1 E76M, Q15424 | -0.2 ± 0.086 |
| Scaffold attachment factor B1 E68W, Q15424 | -0.836 ± 0.07 |
| Scaffold attachment factor B1 L43A, Q15424 | -0.225 ± 0.066 |
| Scaffold attachment factor B1 R35L, Q15424 | -0.316 ± 0.063 |
| Scaffold attachment factor B1 E68N, Q15424 | -0.346 ± 0.056 |
| Scaffold attachment factor B1 G69D, Q15424 | -0.422 ± 0.17 |
| Scaffold attachment factor B1 I65G, Q15424 | -0.564 ± 0.057 |
| Scaffold attachment factor B1 D73A, Q15424 | -0.196 ± 0.065 |
| Scaffold attachment factor B1 L39Q, Q15424 | -0.764 ± 0.072 |
| Scaffold attachment factor B1 N53G, Q15424 | -0.08 ± 0.057 |
| Scaffold attachment factor B1 R35C, Q15424 | -0.4 ± 0.073 |
| Scaffold attachment factor B1 T28H, Q15424 | -0.434 ± 0.09 |
